From patent US12467929

What was measured:
[1] = target: recombinant UBE3A protein (Homo sapiens (Human)) (UniProt Q05086); experiment: 3-step Simoa; capture Novus; UBE3A 0.01 ng/ml
[2] = target: recombinant UBE3A protein (Homo sapiens (Human)) (UniProt Q05086); experiment: 3-step Simoa; capture GTX; UBE3A 0.01 ng/ml
[3] = target: recombinant UBE3A protein (Homo sapiens (Human)) (UniProt Q05086); experiment: 3-step Simoa; capture Novus; UBE3A 1 ng/ml
[4] = target: recombinant UBE3A protein (Homo sapiens (Human)) (UniProt Q05086); experiment: 3-step Simoa; capture MS 2F6; UBE3A 10 ng/ml
[5] = target: recombinant UBE3A protein (Homo sapiens (Human)) (UniProt Q05086); experiment: 3-step Simoa; capture GTX; UBE3A 0.1 ng/ml
[6] = target: recombinant UBE3A protein (Homo sapiens (Human)) (UniProt Q05086); experiment: 2-step Simoa; capture GTX; UBE3A 1 ng/ml
[7] = target: recombinant UBE3A protein (Homo sapiens (Human)) (UniProt Q05086); experiment: 2-step Simoa; capture Novus; UBE3A 0.1 ng/ml
[8] = target: recombinant UBE3A protein (Homo sapiens (Human)) (UniProt Q05086); experiment: 2-step Simoa; capture MS 2F6; UBE3A 10 ng/ml
[9] = target: recombinant UBE3A protein (Homo sapiens (Human)) (UniProt Q05086); experiment: Simoa head-to-head, Table 10; capture GTX; UBE3A 20.0 ng/ml
[10] = target: recombinant UBE3A protein (Homo sapiens (Human)) (UniProt Q05086); experiment: 2-step Simoa; capture GTX; UBE3A 0.01 ng/ml
[11] = target: recombinant UBE3A protein (Homo sapiens (Human)) (UniProt Q05086); experiment: 3-step Simoa; capture GTX; UBE3A 10 ng/ml
[12] = target: recombinant UBE3A protein (Homo sapiens (Human)) (UniProt Q05086); experiment: 2-step Simoa; capture Novus; UBE3A 1 ng/ml
[13] = target: recombinant UBE3A protein (Homo sapiens (Human)) (UniProt Q05086); experiment: 2-step Simoa; capture Novus; UBE3A 0.01 ng/ml
[14] = target: recombinant UBE3A protein (Homo sapiens (Human)) (UniProt Q05086); experiment: 3-step Simoa; capture GTX; UBE3A 1 ng/ml
[15] = target: recombinant UBE3A protein (Homo sapiens (Human)) (UniProt Q05086); experiment: 2-step Simoa; capture GTX; UBE3A 10 ng/ml
[16] = target: recombinant UBE3A protein (Homo sapiens (Human)) (UniProt Q05086); experiment: 2-step Simoa; capture MS 2F6; UBE3A 0.01 ng/ml
[17] = target: recombinant UBE3A protein (Homo sapiens (Human)) (UniProt Q05086); experiment: 2-step Simoa; capture Novus; UBE3A 10 ng/ml
[18] = target: recombinant UBE3A protein (Homo sapiens (Human)) (UniProt Q05086); experiment: 3-step Simoa; capture Novus; UBE3A 0.1 ng/ml
[19] = target: recombinant UBE3A protein (Homo sapiens (Human)) (UniProt Q05086); experiment: 2-step Simoa; capture MS 2F6; UBE3A 1 ng/ml
[20] = target: recombinant UBE3A protein (Homo sapiens (Human)) (UniProt Q05086); experiment: 3-step Simoa; capture Novus; UBE3A 10 ng/ml
[21] = target: recombinant UBE3A protein (Homo sapiens (Human)) (UniProt Q05086); experiment: 3-step Simoa; capture MS 2F6; UBE3A 1 ng/ml
[22] = target: recombinant UBE3A protein (Homo sapiens (Human)) (UniProt Q05086); experiment: 2-step Simoa; capture MS 2F6; UBE3A 0.1 ng/ml
[23] = target: recombinant UBE3A protein (Homo sapiens (Human)) (UniProt Q05086); experiment: 3-step Simoa; capture MS 2F6; UBE3A 0.1 ng/ml

UniProt Q05086, sequence (Q05086 whole entry): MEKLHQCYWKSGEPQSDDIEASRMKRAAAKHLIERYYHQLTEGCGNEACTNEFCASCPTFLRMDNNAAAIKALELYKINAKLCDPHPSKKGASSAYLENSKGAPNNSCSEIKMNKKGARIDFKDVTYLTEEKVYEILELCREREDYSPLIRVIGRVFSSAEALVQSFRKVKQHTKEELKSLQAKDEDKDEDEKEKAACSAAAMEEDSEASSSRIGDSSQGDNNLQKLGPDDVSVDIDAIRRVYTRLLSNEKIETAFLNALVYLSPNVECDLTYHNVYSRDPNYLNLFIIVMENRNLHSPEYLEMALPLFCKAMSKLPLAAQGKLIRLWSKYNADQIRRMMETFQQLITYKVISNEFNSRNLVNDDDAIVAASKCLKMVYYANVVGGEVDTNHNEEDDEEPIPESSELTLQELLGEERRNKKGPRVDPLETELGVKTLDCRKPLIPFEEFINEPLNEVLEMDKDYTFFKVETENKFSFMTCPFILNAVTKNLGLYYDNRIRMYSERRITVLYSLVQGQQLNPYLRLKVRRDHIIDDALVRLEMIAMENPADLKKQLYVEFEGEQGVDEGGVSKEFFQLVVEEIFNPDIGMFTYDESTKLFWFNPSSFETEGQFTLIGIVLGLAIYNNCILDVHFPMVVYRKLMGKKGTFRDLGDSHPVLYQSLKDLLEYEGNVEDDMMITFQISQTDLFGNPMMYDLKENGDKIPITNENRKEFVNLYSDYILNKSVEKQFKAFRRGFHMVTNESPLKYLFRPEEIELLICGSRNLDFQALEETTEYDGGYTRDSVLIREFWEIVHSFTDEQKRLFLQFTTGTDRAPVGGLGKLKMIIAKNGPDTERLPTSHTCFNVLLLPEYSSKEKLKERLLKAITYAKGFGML

AEB1 [1]: 0.0105
AEB2 [1]: 0.0102
Ave AEB [1]: 0.0104
Signal to Background [1]: 1.09
AEB1 [2]: 0.0084
AEB2 [2]: 0.0082
Ave AEB [2]: 0.0083
Signal to Background [2]: 0.972
AEB1 [3]: 0.0276
AEB2 [3]: 0.0233
Ave AEB [3]: 0.0254
Signal to Background [3]: 2.68
AEB1 [4]: 0.177
AEB2 [4]: 0.188
Ave AEB [4]: 0.183
Signal to Background [4]: 46.6
AEB1 [5]: 0.0204
AEB2 [5]: 0.0181
Ave AEB [5]: 0.0192
Signal to Background [5]: 2.25
AEB1 [6]: 0.152
AEB2 [6]: 0.157
Ave AEB [6]: 0.154
AEB1 [7]: 0.0237
AEB2 [7]: 0.0272
Ave AEB [7]: 0.0255
Signal to Background [7]: 1.02
AEB1 [8]: 0.334
AEB2 [8]: 0.338
Ave AEB [8]: 0.336
Signal to Background [8]: 30
AEB1 [9]: 2.26
AEB2 [9]: 2.45
Ave AEB [9]: 2.35
Signal to Background [9]: 104
AEB1 [10]: 0.0162
AEB2 [10]: 0.0168
Ave AEB [10]: 0.0165
AEB1 [11]: 0.404
AEB2 [11]: 0.425
Ave AEB [11]: 0.414
Signal to Background [11]: 48.5
AEB1 [12]: 0.0412
AEB2 [12]: 0.0426
Ave AEB [12]: 0.0419
Signal to Background [12]: 1.68
AEB1 [13]: 0.0302
AEB2 [13]: 0.0257
Ave AEB [13]: 0.028
Signal to Background [13]: 1.12
AEB2 [14]: 0.0774
Ave AEB [14]: 0.0774
Signal to Background [14]: 9.06
AEB1 [15]: 0.724
Ave AEB [15]: 0.724
AEB1 [16]: 0.0113
AEB2 [16]: 0.0141
Ave AEB [16]: 0.0127
Signal to Background [16]: 1.13
AEB1 [17]: 0.174
AEB2 [17]: 0.164
Ave AEB [17]: 0.169
Signal to Background [17]: 6.77
AEB1 [18]: 0.0142
AEB2 [18]: 0.0119
Ave AEB [18]: 0.013
Signal to Background [18]: 1.38
AEB1 [19]: 0.0424
AEB2 [19]: 0.0451
Ave AEB [19]: 0.0437
Signal to Background [19]: 3.9
AEB1 [20]: 0.159
AEB2 [20]: 0.154
Ave AEB [20]: 0.156
Signal to Background [20]: 16.5
AEB1 [21]: 0.0206
AEB2 [21]: 0.0228
Ave AEB [21]: 0.0217
Signal to Background [21]: 5.52
AEB1 [22]: 0.0169
AEB2 [22]: 0.0141
Ave AEB [22]: 0.0155
Signal to Background [22]: 1.38
AEB1 [23]: 0.0063
AEB2 [23]: 0.0064
Ave AEB [23]: 0.0063
Signal to Background [23]: 1.62
Substance: anti-UBE3A antibody 3E5 (SAB1404508-100 ug, Millipore-Sigma)
